Reference: US20030073818A1 (MEDICAL COLLEGE OF GEORGIA RESEARCH INSTITUTE, published 2003)

B1: Calcyon:GAL4 AD fusion protein (encoded by pACTCalcyon) (other, not shown: large carriers)
chain: MVKLGCSFSGKPGKDPGDQDGAAMDSVPLISPLDISQLQPPLPDQVVIKTQTEYQLSSPDQQNFPDLEGQRLNCSHPEEGRRLPTARMIAFAMALLGCVLIMYKAIWYDQFTCPDGFLLRHKICTPLTLEMYYTEMDPERHRSILAAIGAYPLSRKHGTETPAAWGDGYRAAKEERKGPTQAGAAAAATEPPGKPSAKAEKEAARKAAGSAAPPPAQ
notes: Library clone from a human brain cDNA:GAL4 AD library; The 936 bp insert holds the whole 217 residue ORF; also called pACTP24; clone K37
B2: D1 receptor:GAL4 binding domain fusion protein pGBTD1421-435 (other, yeast;human, UniProt P04386 1-147, looked up)
chain: MKLLSSIEQACDICRLKKLKCSKEKPKCAKCLKNNWECRYSPKTKRSPLTRAHLTEVESRLERLEQLFLLIFPREDLDMILKMDSLQDIKALLTGLFVQDNVNKDAVTDRLASVETDMPLTLRQHRISATSSSEESSNKGQRQLTVSSVILDYDTDVSLEKI
B3: GAL4 Activation Domain (AD) protein encoded on the vector pGAD424 (other, yeast, UniProt P04386 768-881, looked up)
chain: ANFNQSGNIADSSLSFTFTNSSNGPNLITTQTNSQALSQPIASSNVHDNFMNNEITASKIDDGNNSKPLSPGWTDQTAYNAFGITTGMFNTTTMDDVYNYLFDDEDTPPNPKKE

Columns and labels:
[1] = target: T1, D1/GAL4 BD fusion protein (hD1 receptor residues 365-446 fused to the GAL4 DNA binding domain, pGBTD1) (yeast; human, UniProt P04386 1-147; P21728 365-446); assay: yeast two-hybrid
T1 construct: D1 segment is at the 3' end of the GAL4 BD open reading frame; also called pGBTD1365-446; D1:GAL4 fusion protein

[2] = target: B1; assay: yeast two-hybrid
[3] = target: T1, D1/GAL4 BD fusion protein (hD1 receptor …); assay: yeast two-hybrid, X-Gal colony filter assay
Text: A nitrocellulose filter was placed on the plate to transfer the colonies to the filter. Cells were permeabilized by freezing in liquid nitrogen, and then soaked in buffer containing X-Gal.

B1
binding result [1]: binds

B2
binding result [2]: binds

B3
binding result [3]: no binding
